In ChEMBL document CHEMBL2074239, “Characterization of uremic toxin transport by organic anion transporters in the kidney” (Kidney Int, 2004) one finds Ki and Km data, which are given here for six molecules.

By Ki is commonly meant a measure of affinity in units of concentration, obtained from inhibition or displacement. As a reminder, the Km is the substrate concentration at which the rate is half of its maximum.

Data set [1] has as its target T1, Organic anion transporter 3 (Rattus norvegicus, UniProt Q9R1U7).
T1 sequence (Q9R1U7 whole entry): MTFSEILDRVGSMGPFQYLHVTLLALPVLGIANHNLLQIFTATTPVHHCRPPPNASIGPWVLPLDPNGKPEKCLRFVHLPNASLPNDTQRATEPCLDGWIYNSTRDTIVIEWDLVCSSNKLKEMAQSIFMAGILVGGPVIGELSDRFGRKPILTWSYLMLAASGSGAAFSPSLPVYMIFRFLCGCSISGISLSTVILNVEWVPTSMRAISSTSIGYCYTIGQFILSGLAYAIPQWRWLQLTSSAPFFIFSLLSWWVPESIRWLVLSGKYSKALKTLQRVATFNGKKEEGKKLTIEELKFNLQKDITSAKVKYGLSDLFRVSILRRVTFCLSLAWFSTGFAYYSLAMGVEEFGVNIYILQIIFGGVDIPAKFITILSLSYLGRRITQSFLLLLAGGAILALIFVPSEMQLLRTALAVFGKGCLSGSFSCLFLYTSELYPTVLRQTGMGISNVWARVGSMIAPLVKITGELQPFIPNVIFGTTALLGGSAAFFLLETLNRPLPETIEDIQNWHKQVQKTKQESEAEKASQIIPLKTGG
Description: TP_TRANSPORTER: inhibition of benzylpenicillin uptake in Oat3-expressing HEK293 cells. It counts as functional, cell-based.

The target in data set [2] is T2, Organic anion transporter 3 (Homo sapiens, UniProt Q8TCC7).
T2 sequence (Q8TCC7 whole entry): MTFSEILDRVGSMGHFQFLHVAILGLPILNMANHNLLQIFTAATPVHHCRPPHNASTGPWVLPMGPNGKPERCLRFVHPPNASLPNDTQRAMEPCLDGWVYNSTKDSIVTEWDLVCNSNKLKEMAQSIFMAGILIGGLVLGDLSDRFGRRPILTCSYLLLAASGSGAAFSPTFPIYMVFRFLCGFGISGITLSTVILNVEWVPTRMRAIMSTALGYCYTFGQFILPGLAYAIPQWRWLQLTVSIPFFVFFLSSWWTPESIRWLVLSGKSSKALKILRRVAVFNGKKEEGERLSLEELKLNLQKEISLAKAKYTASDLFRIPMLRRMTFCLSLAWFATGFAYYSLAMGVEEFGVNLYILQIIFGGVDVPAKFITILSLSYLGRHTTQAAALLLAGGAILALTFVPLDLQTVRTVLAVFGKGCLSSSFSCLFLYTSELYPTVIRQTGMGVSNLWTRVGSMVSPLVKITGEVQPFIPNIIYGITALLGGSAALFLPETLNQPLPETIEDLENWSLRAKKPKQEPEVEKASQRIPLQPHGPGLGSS
Description: TP_TRANSPORTER: inhibition of benzylpenicillin uptake in OAT3-expressing HEK293 cells. It counts as functional, cell-based.

Substrate in data set [3]: CCCc1oc(CCC(=O)O)c(C(=O)O)c1C
The experiment in a line: (§1) TP_TRANSPORTER: uptake in OAT1-expressing HEK293 cell. It is filed as functional, cell-based.

Substrate in data set [4]: CC(=O)Oc1c[nH]c2ccccc12
The data set is described as §1. It counts as functional, cell-based.

Substrate in data set [5]: CCCc1oc(CCC(=O)O)c(C(=O)O)c1C
Description: (§2) TP_TRANSPORTER: uptake in OAT3-expressing HEK293 cells. It is filed as functional, cell-based.

Substrate in data set [6]: O=S(=O)(O)Oc1c[nH]c2ccccc12
The data set is described as §2. It is filed as functional, cell-based.

Substrate in data set [7]: CCCc1oc(CCC(=O)O)c(C(=O)O)c1C
The experiment in a line: (§3) TP_TRANSPORTER: uptake in Oat3-expressing HEK293 cells. It counts as functional, cell-based.

Substrate in data set [8]: O=S(=O)(O)Oc1c[nH]c2ccccc12
The description is as §3. It counts as functional, cell-based.

Substrate in data set [9]: O=C(O)CNC(=O)c1ccccc1
Description: cells, lysate or membranes named.

For the molecule `O=C(O)CNC(=O)c1ccccc1` [HIPPURIC ACID], the figures for the Ki in [1] and in data set [2] were 19 µM and 31 µM, respectively. With `CC(=O)Oc1c[nH]c2ccccc12` [INDOLE ACETATE], the Ki in data set [1] was determined as 582 µM; in [2], 491 µM.

B1: Solute carrier family 22 member 6 (Homo sapiens) (protein)
chain: MAFNDLLQQVGGVGRFQQIQVTLVVLPLLLMASHNTLQNFTAAIPTHHCRPPADANLSKNGGLEVWLPRDRQGQPESCLRFTSPQWGLPFLNGTEANGTGATEPCTDGWIYDNSTFPSTIVTEWDLVCSHRALRQLAQSLYMVGVLLGAMVFGYLADRLGRRKVLILNYLQTAVSGTCAAFAPNFPIYCAFRLLSGMALAGISLNCMTLNVEWMPIHTRACVGTLIGYVYSLGQFLLAGVAYAVPHWRHLQLLVSAPFFAFFIYSWFFIESARWHSSSGRLDLTLRALQRVARINGKREEGAKLSMEVLRASLQKELTMGKGQASAMELLRCPTLRHLFLCLSMLWFATSFAYYGLVMDLQGFGVSIYLIQVIFGAVDLPAKLVGFLVINSLGRRPAQMAALLLAGICILLNGVIPQDQSIVRTSLAVLGKGCLAASFNCIFLYTGELYPTMIRQTGMGMGSTMARVGSIVSPLVSMTAELYPSMPLFIYGAVPVAASAVTVLLPETLGQPLPDTVQDLESRWAPTQKEAGIYPRKGKQTRQQQEHQKYMVPLQASAQEKNGL
Take B1: the Km in [3] worked out at 141 µM; in data set [4] it was 14 µM.

B2: Organic anion transporter 3 (Homo sapiens) (protein)
chain: MTFSEILDRVGSMGHFQFLHVAILGLPILNMANHNLLQIFTAATPVHHCRPPHNASTGPWVLPMGPNGKPERCLRFVHPPNASLPNDTQRAMEPCLDGWVYNSTKDSIVTEWDLVCNSNKLKEMAQSIFMAGILIGGLVLGDLSDRFGRRPILTCSYLLLAASGSGAAFSPTFPIYMVFRFLCGFGISGITLSTVILNVEWVPTRMRAIMSTALGYCYTFGQFILPGLAYAIPQWRWLQLTVSIPFFVFFLSSWWTPESIRWLVLSGKSSKALKILRRVAVFNGKKEEGERLSLEELKLNLQKEISLAKAKYTASDLFRIPMLRRMTFCLSLAWFATGFAYYSLAMGVEEFGVNLYILQIIFGGVDVPAKFITILSLSYLGRHTTQAAALLLAGGAILALTFVPLDLQTVRTVLAVFGKGCLSSSFSCLFLYTSELYPTVIRQTGMGVSNLWTRVGSMVSPLVKITGEVQPFIPNIIYGITALLGGSAALFLPETLNQPLPETIEDLENWSLRAKKPKQEPEVEKASQRIPLQPHGPGLGSS
B2: the values for the Km in data set [5] and in data set [6] were 27 µM and 263 µM, respectively.

B3: Organic anion transporter 3 (Rattus norvegicus) (protein)
chain: MTFSEILDRVGSMGPFQYLHVTLLALPVLGIANHNLLQIFTATTPVHHCRPPPNASIGPWVLPLDPNGKPEKCLRFVHLPNASLPNDTQRATEPCLDGWIYNSTRDTIVIEWDLVCSSNKLKEMAQSIFMAGILVGGPVIGELSDRFGRKPILTWSYLMLAASGSGAAFSPSLPVYMIFRFLCGCSISGISLSTVILNVEWVPTSMRAISSTSIGYCYTIGQFILSGLAYAIPQWRWLQLTSSAPFFIFSLLSWWVPESIRWLVLSGKYSKALKTLQRVATFNGKKEEGKKLTIEELKFNLQKDITSAKVKYGLSDLFRVSILRRVTFCLSLAWFSTGFAYYSLAMGVEEFGVNIYILQIIFGGVDIPAKFITILSLSYLGRRITQSFLLLLAGGAILALIFVPSEMQLLRTALAVFGKGCLSGSFSCLFLYTSELYPTVLRQTGMGISNVWARVGSMIAPLVKITGELQPFIPNVIFGTTALLGGSAAFFLLETLNRPLPETIEDIQNWHKQVQKTKQESEAEKASQIIPLKTGG
For the molecule B3, the values for the Km in data set [7] and in [8] were 11 µM and 174 µM, respectively.

B4: Solute carrier family 22 member 6 (Rattus norvegicus) (protein)
chain: MAFNDLLKQVGGVGRFQLIQVTMVVAPLLLMASHNTLQNFTAAIPPHHCRPPANANLSKDGGLEAWLPLDKQGQPESCLRFTSPQWGPPFYNGTEANGTRVTEPCIDGWVYDNSTFPSTIVTEWNLVCSHRAFRQLAQSLYMVGVLLGAMVFGYLADRLGRRKVLILNYLQTAVSGTCAAYAPNYTVYCVFRLLSGMSLASIAINCMTLNVEWMPIHTRAYVGTLIGYVYSLGQFLLAGIAYAVPHWRHLQLVVSVPFFIAFIYSWFFIESARWYSSSGRLDLTLRALQRVARINGKQEEGAKLSIEVLRTSLQKELTLSKGQASAMELLRCPTLRHLFLCLSMLWFATSFAYYGLVMDLQGFGVSMYLIQVIFGAVDLPAKFVCFLVINSMGRRPAQMASLLLAGICILVNGIIPKSHTIIRTSLAVLGKGCLASSFNCIFLYTGELYPTVIRQTGLGMGSTMARVGSIVSPLVSMTAEFYPSMPLFIFGAVPVVASAVTALLPETLGQPLPDTVQDLKSRSRGKQNQQQQEQQKQMMPLQASTQEKNGL
B4: the Km in data set [9] was 28 µM.
